# Measurements taken from the DeepSol protein solubility set.
# Experiment: soluble on expression in E. coli; label from the status in PepcDB or PDB records
row,Sequence,soluble on expression in E. coli
1,GPGSMDGFRLYMEGISLPEGSMRRANAELIGAINSPDPMVQHSGLQMLCDQLTMSSFISPSTMTTIPLVLPSLLRCIASSQVREVFITAARALTYIIDAFPRTFETFPTRDTLIEVLLQHLRSIQDVELSEQCITCLEMITRSQTGSRELLHNNGVEAVLGFADFFTLHKQRQIWTIVQRLVGEVDESSVQHITACLPTLRIGMTNGDSEIRQKAIATLAQAIEGVKTDRAIVETVFGDAADRIAVLLHERDVNDDTLSSALSLLYAGVQWSAGIAASVIQSDLLNTLLSLLQSTPVPAVVAEQHTAPSAGAGRVARRSAAAELVVGRDSTTDSGGGAGTEPAAARTTMLTSHQRTIVCRLLASLLIPCRTGAAEQLERLEMLTQRPLLTGARAHGKPVGHGRRR,not soluble
2,GPGSMDPNTCAPASAVTDEQPLTLLWGTWEMWCDMPQRQQGQSTENTNWLEQVKSIGLFDSAEGFWGIFNCTILPSQLPPNGSYYLFRKHIAPMWEHEANRRGGKWVIPFTGKASRSEGDLQPVDEAWQTLCLSAIGELFPGDEEEICGVTVSRGRQRTLPSGHATSALSEWKLCLWTRSADNRGSQIRIAEYIRKQLHLQPPSKEASRDGKSGEQDTLMEMPRSPDRSPVAKMREASGIPSAMTYVAHRDLMEAKQEFVKGGSSVAQAFRPKYTLAIDVRNEGV,soluble
3,GPGSMDQDLSVCEQEYRKLLDPEEPLFSRTRELYRLKESILRTPAGVHVLAKAVDTTNSVLLQHELVYNLGQSAMVEACPHLERFIRAVGKYDIVTRHEAVEALGAIGDPACIPLLRHFMEPANEPEAAIRESCELALKRIEMLEEKGKEAVGPAANCPFVSIDPAPAFNGTNTGGSAPYTVSELENLLCDTTGAVSLWLRYQAMFTLRNIGTPEAVAALSRALRQDNTSALLRHEVAFVLGQLEHPASQPALLDALRDEHEAPMVRHEAAEALGAIADPKTLPALEEYAKHKEAIVRDSCVVALEMHKYWSQFNNQRIQH,soluble
4,GPGSMEEFYGMEVFAGKTAKPNISADRVLHVTQVALPPNASHAITLLVKTEGKSFVLATLDPQQALFHVSVDMLFSGKQKLAFTCEGATGAVHIIGYTQLAEEEEDAIDDEDDDDMMDDEDVA,soluble
5,GPGSMEGLSPPETDECAKPHNRECNTTPSSGSPPSNIPPQQLLCSVRSGMHSNLTESAWESRESNSGYAHEKQSGVDGDACTRYYQRLHRFYEQYNPKNLSRISEYLAAYKGKEEQLMAILVGKYGPEPVDRGPQTNLSCCSGDDSVMHFSGKRYRIPTVVTPQQGNTDCETPYWGNSPLIGERDILGLLSSLETANVELQKCYIGPSAQHPTSSWNGMTYVTRAEIFTPNEETFLGHKWTFTLGSKKVLVHEGSAYHRATFFCTDECQYRGRHERWRLCVYTSSVDSLYLVRVIWDPVVYLEPLPLDRSALSQHSSSEAMPIAGSSVSYQTSCGKGNTEPEQPLISATMINIMTMLENMDKKISGRFDALEARFSFLESKLLGAVDDKQRTEDR,not soluble
6,GPGSMERIPLVVRRMVAAEQSCGFVHFFASLADASATPLVIEAKAFSSAAAGGAADDAAPTYQLVYDVMRSRNGHILFKKSYAERFTHSLALAAPVHALPAQLRSLVQSRLQAYIESPGVYLDGATERNVKLLSWIPATAASTTQEEAFPIPGIVMLVKSSYPSESMYREGAKLGLLFNAHRTNPNAKVAQMGLRDRANAYLAENDVYEVLLVHDAADAYLVPEGSRSNYLLQKSDGTWWCSAEEDILVGITLKTTYRVVQACGLGSVQHAKLTLKDILESKSLFILGTSPTIMPVQSVLLYRDTETRRLYEEAVRGLGTTAGTVQQVSDDKAELLFPVNVELAAALRAQYFAEAASS,not soluble
7,GPGSMEVKIGKDVALLTAHKTYRDDGEDMVKAVATYVPFMNYVAACESSGLVPSAFLVRNVRHIARRVVGVIMDVECNTPTGKIVQPVEMSDFSPAILLPVVIVETVRYALLLQRRCVAVGCGLTTEAFCGAKDSGDNITWQNHELLTSAGFDLRDVRKLGFGEYSVGNEGLPPYTLHTIKKGMSSEEFEQLQKISAGTADASLFAVRLEDVMSSVNDAKAGLAASVLLLES,soluble
8,GPGSMFGANAPSTGIGAPAAGFGKPPATFGTSALSGANTTATAGRGFGAATGASATPGFGIAFAAPSTSTAAAGGASGFGSSAASGTTGFGGAAGFGSSAASGTTGFGGAAGFGSSAASGTTGFGAGGGFGAKPGSGFGVSATSGFGAPATGTTGFGAGATAPAAIGGWGAQQPNPAMQPQAPQQPQPTVTLQDFARQSALASYLVKLDESYNALHPNCRFRAFVYNSCGAGQVMDAIQKERYTAHLNGGGCSEEAYMQALHQNPDPGRLYPSPIHFSQELLRRTEKQREAVKVLQKKVTELLQDIDTVAAMDAANVRRQREVEQEEVMLQHRWYSLLCKMELLRRHGSSCGEEGLLNSRVEQLRKLLRAPGRFSQLLSELRPFLTEEASRVAMITQQSANKTEARQQQQQCRFVGSAPAAWRNAGSQPLLRTEVDPYIMKDWVQFAKQMQDGIETLNELLKTDLKEMQAIRSRVEAS,not soluble
9,GPGSMFLNNNMVDDARTVQLLEEIDVQLERWGKKYGLDPSNEKQKRIPTAGGGDIKPSASSQRSHDVPNVKFVNDRTNSKVGIVETAAVAAPQGFDPSALFDRIDMLEKKLKVAEEERMILSERLFAAERIVVEVVNAQKGLQDEWAALSTQSFSISHLDDDRRTIVDSGKTSKRDCAFTSYTTQSRQSTQSGNSSVAGLSAFVSPAKEDTSRSCLQSPVRNAGSSGSVLGGEEEEDVVGATERRLFALDDLAQRLAV,not soluble
10,GPGSMHDLVADDSQDGDNEVISSEVPLNKHAGDEEATRTSTFKYKKGILINQGYEFDGSSTTCAEVPASAWGSNITGDEEATTTSYVRVYVLVSSQAALKELALPPVGSKGASGVPHATGYVPLTAATRAILGANMENCGW,not soluble
11,GPGSMKATIITPGETYRILAPASSLHKYLTDSYWCSAMEEVCEGKLDGVAVRYTGQQLVLLQFRPKQLSPAGYRYPISMSIPVEYLVPISTEESTEDHNICKHDTNYGTKESTFLGSGFAPLCVVCGRYNVPGMVLRHHGYKCPECVGHKSTRKLRMEGARRR,not soluble
12,GPGSMKGKAGRSIAAISDVRAAVLRFCDEQLSRRLDTQPVAEVHQKVSACVQTVDPAMTPYIFGSTAVLGVHEQGSDVDFVCLSPTDVQDGKGADAVSEVAKGLQSDFLFRLGEVVKREHYLWGIELVRRTRVPVLRVKGGLGVDGVSFDVTANRRNGVRNSALLRAYFTQCPEARWLSMLVKQWSKKTGLNASVEGGCITSYGWNIMIVYYLLRRRLVTLVPVESCDVADIAPMPPHMPLESLQQGGQGLADMLMDFVSYYLDEFAPETEVMSLTRAAGETTTEMLSWTKQAEDMARIRGEKIHYRWCIEDPYEYDLNVGRNVTPFKLMLLRKHLERARETALLLLATPPPSATARSVK,not soluble
13,GPGSMKPLRIKKRESAGTPAEDEALTGLTSSASSVAAGSLAPRHVPSPPAVKGGRLPAHPGHDSGPSPAAATPAPTAKVSAAVKFSSELDNAAVEAYLEYLTHPHMSWESASRHVAHCREVIEEHRNSIYARSLAMLRRSSFASTIGSEGGDLDALETSTTSSVASAPAGFPRTAPNGSNKATGTLRKGRLGDAGSPLLPSDAAEPLAIVAHSSAAVSSSHSADSASCTSTGTGQRAPSNKGRLLRGPALAGPPRPHRTSSSATAPAAVGESVLGVGGAKLLGGSGSVFLVNGRSSAVTSRTASRDSTDRLPPVAPQGGGESLIHCKRTGGARAAVPSPQPKHRLK,soluble
14,GPGSMLGSPSDPPPRDAAGDAAAPVSAASSPSAALPVAAVYSTGSQALQAELHQLRERLRVSDEWNMRLQLQLQELLQLPQNEVQDMRQRMQDPDIAIPLLQCYDAVIHEKTEEVERLRREAVDLQTQLDAFRKDQLDVSNAVRMAEELAKSVQGKAAAEVQRYLEAVRELQEELVRLRIEVTRALDAENIAKQDALRIAERAASLETALEAAKQATSKAEAAREAAERKWTIQEQQAEEQEMGAVVQKAQLQRITQENADKAQELERLRAKMTHALRQASDNHAAHLRIVEERHRMIVEDLRSVNRTQELEVLKLRAQLARCDMTNPSGAGRGTGASSASTSSLRLQSTAELLEAQTRQAQEMELKRLHGEVSALQLQRDDAVRQCEQRTSRLQRDFDQQLQDAQRQLQSAQRSFSEARSRCEELEETKAAQEASLRKARDELRQAQQGGQQYRLSADSSARKLASAQQQLAEASKRFSTLQEEKQSAVRQAHERVSELEANVAQALQEVQSAKERAYAEVEEVQRRYEQLRLQNSKLQDDLREREAALVKKERERSILVAQIGRLEDGLEAHKRQMMESDRRVQQLEQQLIAMRQQQREGFLSLEQVKLQNAQLTRTRDQLAEMLQARSL,not soluble
15,GPGSMLHIDFCIAADAQEALEESGKPNTATVAVPIILEKEVLKLLAPPVCSSDGGFEYDLNATRTLLGAKGATAAYIVVRTAPSTQYVVIYVSDTTSAKNRMLYSTGLSRVVEATPHAQKRTVRISSVSELLPSLFEAESKKVKEALMTESERHHAAIARMEVAPQPVALPGVAVQITTDADDGLSQFAGGAVEVATFKIEAGQLQLDKTVAQLNGNLDQVKSILTDADPRFVLLRYPSPKTQLAEAVMVYVCPPTCSPKIKIQYASSAAAFREQALRHKIQLAHKVETDTTATLADDVRSAFEPFPSADARKTHGRLSSCPPTSWAPKGHSMLI,soluble
16,GPGSMLKFRLPYTHKKIGFGDSSRKVNSSLIGPDGTVNYLRGDILLPIWTRPTSTEGRLVVPRGAHRVPYKVAQVENCFFFFNARVREQVHFNHILLPDENLDHHYDAAAEVNCLLKYLQFLHPELREASAAVLRREVKHISTSITAHLRVNFQDVVRRREYLLLKQARSGQSEEEGDESDNEAVDADTAPNCGAQLGSSWETFAKEIIQAASKERARVVWRRNVEETGSDVRSGFWVTTIMRQ,not soluble
17,GPGSMLRLGQPTLTAMRCVPAASASATAVAPTTSYPSTSAALLANTRAIHGEVRHQNTDYDNTRIPWDFTTSSYEKIHNEILPKFPRGRRISATIPLLHLAQQQQGGYIPVTAMYKIAKICEVPPMHVFETVTFYSMFNRHPVGKYHIQFCRTTPCMLCGADELMERTMHYLNVRMHGTTSDGLITIGEMECLGACVNAPMLVVSDYSNPPNFSYDYMEDLTWESIKTLVENLRGGKPFKIGSQRLDRRYAEPAGGRTSLLFKEPPGPYCRDFDAEPDKKADAASPKK,not soluble
18,GPGSMLRRLGSTLFCSVTLANGTVLKGDLNPHNPSLLLKGITILPDGRVYSGSYDATSGFPLPGSQLEEDGDLYRGDFNTQWQREGRGEAWLADGTHYAGVFKNDEITEGIVRIPNGTTEVVFEGTLSDEAFVKGKLTQSDFVYEGEFSDNEPHGKGKLVFATGAVQEGTFFHGKLHGPDCKMKLDGGFVYVGEFLDGQIRRGTLYTPTYTYEGEFNEHGRAQGEGTQTYLINEPRLTFTGIWTNGALVRGVCMDEYGSAVDWQNNDELQAKVLGGATGKGSESVGLNSYCSARMKEAAQLHSDMQRSYAEDAEAVAQSTGRFPTKMDLGYEGSIAHENEAVMQAQQRQMQDIERSKEVLSDRARDFGPIASGSRGNIIGEIDENMARIQFRRQVGAEEVSAARVDEQFERFMKSFKKPSPLPGAPAQVAQKLNIDGNAPWKAFTPLK,soluble
19,GPGSMLSQYLRKRVSVVTVDGRNLVGVLHAADQLLNIVLTSCVERTGAPYDFDDGAAEEDNGSVVDEGVSTAFSGGDTASGALPPLEEVHLGVMMLRGADVVSIAAIDVYEEAGTNVKDWRGRDMPPATAVARSW,soluble
